One data set concerns the target T1, RAG1 central domain (Mus musculus, UniProt P15919).
T1 construct: central domain (amino acids 528–760)
T1 sequence (P15919 528-760): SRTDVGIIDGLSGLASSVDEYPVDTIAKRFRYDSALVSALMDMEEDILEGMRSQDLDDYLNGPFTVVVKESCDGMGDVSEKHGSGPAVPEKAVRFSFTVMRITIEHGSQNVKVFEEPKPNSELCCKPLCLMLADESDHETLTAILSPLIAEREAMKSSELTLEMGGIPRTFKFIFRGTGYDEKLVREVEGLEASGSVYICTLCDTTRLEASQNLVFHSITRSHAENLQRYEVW
The experiment in a line: biolayer interferometry (biotinylated central domain on SSA sensors); also circular dichroism, and inhibition of purified cRAG binding, cleavage and hairpin formation.

The target of data set [1] is T2, RAG1 central domain mutant CD-DD (Mus musculus, UniProt P15919, D600A/D708A).
T2 construct: central domain (amino acids 528–760) with point mutations D600A/D708A
T2 sequence (P15919 528-760 D600A/D708A): T1 sequence (P15919 528-760) with D73A, D181A
Nature of the data set: biolayer interferometry (biotinylated CD-DD on SSA sensors). The class given is binding.

The target in data set [2] is T3, MBP-core RAG1 (cRAG1);MBP-core RAG2 (cRAG2) (;, UniProt P15919;P21784 384-1040;1-383, |).
T3 sequence 1: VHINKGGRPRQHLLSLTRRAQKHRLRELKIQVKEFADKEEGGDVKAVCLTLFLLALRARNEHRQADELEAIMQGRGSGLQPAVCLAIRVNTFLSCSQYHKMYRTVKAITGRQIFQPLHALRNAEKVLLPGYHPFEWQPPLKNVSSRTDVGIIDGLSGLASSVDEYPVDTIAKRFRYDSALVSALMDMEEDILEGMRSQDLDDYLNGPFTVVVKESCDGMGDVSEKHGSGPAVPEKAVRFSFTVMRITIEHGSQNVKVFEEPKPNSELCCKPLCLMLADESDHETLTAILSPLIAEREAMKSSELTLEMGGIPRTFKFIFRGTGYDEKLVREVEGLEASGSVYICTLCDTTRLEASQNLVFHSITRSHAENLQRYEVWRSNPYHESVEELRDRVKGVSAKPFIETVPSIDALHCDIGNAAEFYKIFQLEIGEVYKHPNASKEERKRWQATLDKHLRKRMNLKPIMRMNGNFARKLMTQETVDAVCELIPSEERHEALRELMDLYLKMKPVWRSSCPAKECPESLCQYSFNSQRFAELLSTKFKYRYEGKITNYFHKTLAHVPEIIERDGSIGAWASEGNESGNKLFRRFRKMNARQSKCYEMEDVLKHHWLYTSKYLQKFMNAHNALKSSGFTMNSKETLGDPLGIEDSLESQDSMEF
T3 sequence 2: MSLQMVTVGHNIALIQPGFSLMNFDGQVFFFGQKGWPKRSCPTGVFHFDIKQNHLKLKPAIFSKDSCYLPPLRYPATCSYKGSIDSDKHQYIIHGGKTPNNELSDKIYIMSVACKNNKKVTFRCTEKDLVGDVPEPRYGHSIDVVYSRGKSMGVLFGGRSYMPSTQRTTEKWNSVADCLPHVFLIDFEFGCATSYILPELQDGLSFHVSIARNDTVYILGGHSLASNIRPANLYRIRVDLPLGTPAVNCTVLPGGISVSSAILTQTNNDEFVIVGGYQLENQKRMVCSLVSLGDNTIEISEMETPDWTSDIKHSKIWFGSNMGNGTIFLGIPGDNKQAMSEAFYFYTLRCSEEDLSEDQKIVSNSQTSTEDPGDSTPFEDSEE
Nature of the data set: EMSA; 5 mM Ca2+, Raltegravir 0.1-0.5 mM (no significant effect); 22.5 mM MOPS-KOH pH 7.0, 20% DMSO, 2.2 mM DTT, 50 mM K-glutamate, 2% glycerol, 100 ng/ml BSA, 5 mM CaCl2, 100 ng RAG, 2 h 25 C, then 0.01% glutaraldehyde fixation 37 C 10 min; 6% native PAGE. The note with it: protein: recombinant;recombinant; tags: N-terminal MBP;N-terminal MBP; chain copies: 2;2; label: 5'-32P on AKN46; blunt ends, internal 6-nt CCCCCC/CCCCCC bubble flanked by 15 bp each side.

A further data set has as its target T4, MBP-core RAG1 (cRAG1) (UniProt P15919 384-1040).
T4 sequence: T3 sequence 1
The experiment in a line: EMSA; 5 mM Ca2+; lower band assigned to RAG1 alone; 22.5 mM MOPS-KOH pH 7.0, 20% DMSO, 2.2 mM DTT, 50 mM K-glutamate, 2% glycerol, 100 ng/ml BSA, 5 mM CaCl2, 100 ng RAG, 2 h 25 C, then 0.01% glutaraldehyde fixation 37 C 10 min; 6% native PAGE. The note with it: protein: recombinant; tags: N-terminal MBP; chain copies: 2; label: 5'-32P on AKN1; 1-nt 5' overhang at each end (49 bp).

For data set [3], the target named is T3, MBP-core RAG1 (cRAG1);MBP-core RAG2 …. The experiment in a line: EMSA; 5 mM Ca2+, no inhibitor; 22.5 mM MOPS-KOH pH 7.0, 20% DMSO, 2.2 mM DTT, 50 mM K-glutamate, 2% glycerol, 100 ng/ml BSA, 5 mM CaCl2, 100 ng RAG, 2 h 25 C, then 0.01% glutaraldehyde fixation 37 C 10 min; 6% native PAGE. The note with it: protein: recombinant;recombinant; tags: N-terminal MBP;N-terminal MBP; chain copies: 2;2; label: 5'-32P on AKN1; 1-nt 5' overhang at each end (49 bp).

Substitutions are numbered along the chain they refer to.

As for `COc1cc2c(cc1Cc1cccc(Cl)c1F)c(=O)c(C(=O)O)cn2[C@H](CO)C(C)C` [EVG, Elvitegravir], the Kd came to 32.5 ± 2.9 µM on RAG1 central domain and 43.7 ± 3 µM in data set [1].

B1: (C/C)6 bubble heteroduplex (AKN46/AKN20) (mixed)
DNA 1: GACCTGAGGGCGAGCCCCCCCCGAGTAACTTAACAG
DNA 2: CTGTTAAGTTACTCGCCCCCCGCTCGCCCTCAGGTC
B1: the binding result in data set [2] is on record as “binds”.

B2: 12RSS (AKN1/AKN2) (dsDNA)
DNA 1: GATCAGCTGATAGCTACCACAGTGCTACAGACTGGAACAAAAACCCTGCT
DNA 2: TAGCAGGGTTTTTGTTCCAGTCTGTAGCACTGTGGTAGCTATCAGCTGAT
Take B2: the binding result (in the data set with MBP-core RAG1 (cRAG1); in data set [3]) was “binds” each time.
